Assay results reported in patent US20260232802A1 (published 2026).

Columns and labels:
[1] = biological target: T1, Human Telomerase Reverse Transcriptase (hTERT) peptide on HLA-A*03:01 (human); assay: multimer staining
T1 peptide: SVLNYERARR

[2] = biological target: T2, Survivin (BIRC5) peptide on HLA-A*02:01 (human); assay: killing
T2 peptide: LTLGEFLKL
Experimental: (A) Survivin-specific transgenic T cells were co-cultured with Survivin⁺ primary AML blasts expressing (target blasts) or not (control blasts) the HLA-A0201⁺ allele in 1:1 effector to target ratio. After 24 hours, elimination index was calculated as [1-(number of alive blasts cultured with edited T cells/number of alive blasts alone)]. (B) Survivin-specific transgenic T cells were co-cultured with Survivin⁺ primary AML blasts expressing (target blasts, upper) or not (control blasts, lower) the HLA-A0201⁺ allele in 1:1 effector to target ratio. Killing is represented as area covered (μm²) by cells undergoing apoptosis (caspase 3/7 activation) overtime. […] Data are presented as means±SD. ****P<0.0001, by Student t-test (A) or two-way ANOVA (B).
For killing assay cells were plated and kept at 37° C. and 5% CO2 after the addition of anti-CD28 monoclonal antibodies (1 μg/ml; BD biosciences) for 72 hours in case of co-culture with cell lines, and for 24 hours for co-cultures with primary AML blasts. […] Viable target cells were counted using counting beads (Flow-count fluorospheres, Beckman Coulter), according to manufacturer's instructions. Elimination index was calculated according to the formula: [1-(number of alive target cells in culture with effector T cells/number of alive target cells in control culture)]. […] Data were analyzed by FlowJo software version 10 (BD).

[3] = biological target: T3, Survivin (BIRC5), modified form of the peptide peptide on HLA-A*02:01 (human); assay: multimer staining
T3 peptide: LMLGEFLKL

B1: hTERT #1 (TCR, V domains shown)
Valpha: GENVEQHPSTLSVQEGDSAVIKCTYSDSASNYFPWYKQELGKRPQLIIDIRSNVGEKKDQRIAVTLNKTAKHFSLHITETQPEDSAVYFCADWVDMRFGAGTRLTVKP
Vbeta: GAVVSQHPSWVICKSGTSVKIECRSLDFQATTMFWYRQFPKQSLMLMATSNEGSKATYEQGVEKDKFLINHASLTLSTLTVTSAHPEDSSFYICSAPLDRGSNQPQHFGDGTRLSIL
Q: Does B1 bind [1]?
A: recognises

B2: hTERT #4 (TCR, V domains shown)
Valpha: GIQVEQSPPDLILQEGANSTLRCNFSDSVNNLQWFHQNPWGQLINLFYIPSGTKQNGRLSATTVATERYSLLYISSSQTTDSGVYFCAVSHGRGGATNKLIFGTGTLLAVQP
Vbeta: NAGVTQTPKFQVLKTGQSMTLQCAQDMNHNSMYWYRQDPGMGLRLIYYSASEGTTDKGEVPNGYNVSRLNKREFSLRLESAAPSQTSVYFCASDRVLGYEQYFGPGTRLTVT
Q: Does B2 bind [1]?
A: recognises

B3: hTERT #2 (TCR, V domains shown)
Valpha: GQNIDQPTEMTATEGAIVQINCTYQTSGFNGLFWYQQHAGEAPTFLSYNVLDGLEEKGRFSSFLSRSKGYSYLLLKELQMKDSASYLCAVSRPNSGYSTLTFGKGTMLLVSP
Vbeta: AAGVIQSPRHLIKEKRETATLKCYPIPRHDTVYWYQQGPGQDPQFLISFYEKMQSDKGSIPDRFSAQQFSDYHSELNMSSLELGDSALYFCASSVRTPSGQETQYFGPGTRLLVL
Q: Does B3 bind [1]?
A: recognises

B4: hTERT #3 (TCR, V domains shown)
Valpha: KDQVFQPSTVASSEGAVVEIFCNHSVSNAYNFFWYLHFPGCAPRLLVKGSKPSQQGRYNMTYERFSSSLLILQVREADAAVYYCAVETGGGATNKLIFGTGTLLAVQP
Vbeta: NAGVTQTPKFQVLKTGQSMTLQCAQDMNHNSMYWYRQDPGMGLRLIYYSASEGTTDKGEVPNGYNVSRLNKREFSLRLESAAPSQTSVYFCASSEFWLTQETQYFGPGTRLLVL
Q: Does B4 bind [1]?
A: recognises

B5: Survivin TCR (TCR, V domains shown)
Valpha: SQKIEQNSEALNIQEGKTATLTCNYTNYSPAYLQWYRQDPGRGPVFLLLIRENEKEKRKERLKVTFDTTLKQSLFHITASQPADSATYLCALDRMDSSYKLIFGSGTRLLVRP
Vbeta: NAGVTQTPKFQVLKTGQSMTLQCAQDMNHEYMSWYRQDPGMGLRLIHYSVGAGITDQGEVPNGYNVSRSTTEDFPLRLLSAAPSQTSVYFCASSYDQDGEAFFGQGTRLTVV
Q: Does B5 bind [2]?
A: recognises

Q: Does B5 bind [3]?
A: recognises
